Results: a protein production outcome set (Wang et al. 2014)

Assay: label from the status in PepcDB records

MSLKNKLQVKIPGKLYVAGEYAVVESGHTAILTAVNRYITLTLEDSERNELWIPHYENPVSWPIGGELKPDGEHWTFTAEAINIATTFLKSEGIELTPVKMVIETELIDQSGAKYGLGSSAAATVAVINALMTKFYPEISMLKKFKLAALSHLVVQGNGSCGDIASCMYGGWIAYTTFDQEWVKHRLAYKSLEWFMKEPWPMLQIETLEEPVPTFSVGWTGTPVSTGKLVSQIHAFKQEDSKNYQHFLTRNNEIMKQIIQAFHTKDEELLYSSIKENRRILQELGTKAGVNIETSLLKELADSAENMGGAGKSSGSGGGDCGIAFSKTKELAEKLVNEWEKLGIKHLPFHTGRVQITEGHHHHHH
protein production: not failed

MTIPTISELKKDRIIPHVFPNDKIDLNVDLFISFKAGKEVNHGNVLDIAGTGSVPRNIKFSEEPPDGYCFVLFMVDPDYPSRLRPDGKEYIHWVVSGIKTKELIKGTQKNCVTILPYVGPSIKKGTGLHRISFIISLIKEEDKDNITGLPHYKGEKYITRVKFNNYESVHNIAQINNMKIVGYNWCQIEG
protein production: failed

MKSSYGSSSNDLHAFVNEIKGEIQLSNINLDPYSFVSPSAYDTAWLSMIEEDINVDDNELKPMFQGCLDWIMCNQNAREGFWMNSTSYTTVADGRDEDGEKDMCILTSTLACVVALQKWNIGCFHLHKGTRYIERNTEMIIGKYINEEGSYPRWFAIKFTGILELAQKLGLHFVFSSRCIEMIKGMFYQRQEIIQREKLVHDCNYKPLLAYLEVLPSKLYVTNQEDIIVKSLDSMDGSLFQSPSATASAFMLTRNTKCLAYLQNLVQKCPNGVPQKYPLNEDLIKLSMVNLIESTGLGEFFGIEIEHVLEQVYSRYEEKDFERMPMSYLADQLHKDSLAFRMLRMHGRDVSPRSFCWFLNDQETRNHLERNIDSFLLVILSVYRATDLMFPGEHDLQEAREYTRNLLEKRRSIKEKMVPIYLNKIMHELSTPWIARLKHLDHRMWIEDKNSNVLSMEKASFLRLHSSYSDKLTHLAARNFEFQQAKYCRELEELTMWVKKWGLSDIGFGREKTTYCYFATVTSLPYEYAIKFGKLAAKTAILITIADDFFDEKGSFNDLEGLTKAVLRWEGEELKSYGNIIFRALDDIVRETANTCRTHHKTDIIVHLRNIWGETFESWLREAEWSKKGHTSSMDEYIRNGMISIAAHTIALSISCLMEPCFPHNKLKPGNYDSITTLLMIIPRLLNDLQSYQKEQEQGKMNSVLLHMKNHPGLEIEDSIAHIEKIIDSKRKEFLEHVLVDGLSDLPKPCKEIHMSCCKVFEMFFNKKNRYDSNTEMLHDIKKALYDPINVYELSEMEPMPLMAHGDEYMILPLLLNSLPNILEFKRKDGYGAMKTSMCFGRSYRVNKRVMASQLDDQHKPLKIVASQRKPVPMMQSIFAPCFY
protein production: failed

MRLDKFIAQQLGVSRAIAGREIRGNRVTVDGEIVRNAAFKLLPEHDVAYDGNPLAQQHGPRYFMLNKPQGYVCSTDDPDHPTVLYFLDEPVAWKLHAAGRLDIDTTGLVLMTDDGQWSHRITSPRHHCEKTYLVTLESPVADDTAEQFAKGVQLHNEKDLTKPAVLEVITPTQVRLTISEGRYHQVKRMFAAVGNHVVELHRERIGGITLDADLAPGEYRPLTEEEIASVV
protein production: not failed

MIAAVAVFALTYVAVAAGRFPYLSLDRPAAALLGAVLMVALGVLTPAEGGAAVNGETLGLLLGMMVLTAYLGEAGFFRWASWRVLRAAGTPRTLLWGVVFTAGALSALLVNDTVCLMMTPLVLRMVDDADLPPLPYLLAVAFGSNAGSAATLTGNPQNMIVGTLSGIGYGRFAAALALPALASLLLVAALLHALFRRALPRGPLAGGRPAAPAVDRALLAKALGALALAVTGFLLGLELAWTALFAAALCMAIAGRAPREALQRVDWPLLVFFAGLFVVVAGIGRAGVTERMYQAVAPLLGADPARQSAVFGLFSIAASQVVSNVPFVILAGEWIPRLADPTLLWLATALCATLAGNLTIVGSVANVIVLELAGSRGRIGFWRFFRVGAVVTAATVAAGLGILLLEHRLGLIG
protein production: failed

MQEESHIEEVEIQNKLEVAPALISVHPSQKSVAVAVGSDLRIFDLIENCPVSLVDESDGPIRKESIRAIRYSTSGKLFVSAGDDKLVKIWSADSWRCLNTVCSEKRVSAVAISSDDSHVCYADKFGVVWVIELDGINDGKTLPSKKGALLLSHYCSIITSLEFSPDGRYILSADRDFKIRVTVFPKKPLEGAHEIQSFCLGHSEFITCTAFVSTPELTQGYLMSGSGDSTVRLWDITSGSLLDTCEVSTVAGHAESNENESPTQVTVTDICAIPNSSLAAVAIQSFQGIFLLSCDLTAHTLSITKVIKIPGESFIPTSIAVSASSRLLWMVSGASNLPGSNHPGFSRVRVISCLETESSSILEDEQIPGGTKLLEQLQGKVTIEESVMSAAAEAVRAAMSSLLMKKQYSEEKREFRKRTRNDKKTTR
protein production: failed

MDRNSKIVVGLVAVLSIAGLVLSLAGLLEGGEGTIAIIPVHGAIAYDTAGFSDGVDPDDIKELIAEANSDPSVKAIVLDINSPGGTPVASEELMDAINKSEKPVVSWISDSGTSGAYLAASASDRIVASPSAWVGSIGVILDLTDLSQMYRQMGINKYAIKAGEYKDMGADYRMITDEERQMLQSMVNEEYDYFIKTVAANRNLSVSYVKSLAEGRIFTGRQAVRNRLVDFTGGKDYAVEVAAKLAGVKNYNTITLEPPSGFLRVLSSMFSRLGFASGNTTEELQLH
protein production: failed

MENRAHAFLAGLFTIGLAIFIALAVVWFNRDQTVRVPYEVVTRSTVNGLSPQAAVKYRGLDVGKVDSIRFDDRVPGQIIVRVLVDKDAPITTTTYGRLAYQGVTGLAYVQLDDRGYDGGKRAANPTRLETSDRRPARIAMEAGFLDELDKRGDQMLARIDQTLSSLSALFDDEHRQALMAAMQSFQGTMDSYNALARQAEPTMRRLPQIADNLDATLSATRRLSQSLSDPKGPLMGTLASAGNDLSSASQSMQAATNVLANETLPQLNGFAREARQAVRSFDHAVTDFNTRPQSVLFGPAPATPGPGETGFAAPQVSAAPSVAVPATARP
protein production: failed

EAERVSVEHTSANPTGPLHIGRARNSIIGDSIYRILSRYGYRTVRQYFVNDSGKQMISLYTAYIKYGGPITIENLLENYQKIYREMEKDQSIEKEIEKNIERYENADPEVFGTLRKIAGVMLDGIASTLKRIGIEFDEFDWESDLLLNGSVRKAIDMLETKEEDSARYIEISGKKVFLTRKDGTTLYFARDIAYHLFKAENSEWIIDVLGEDHKDHAKSLNHVLKEMLKLENRVSFMYYSFITLETGKMSTRRGNIVTLQDLVDRTYDEALKIVNEKRPDLSEEERKKIAEVIASSAVRYSIIRVSAPKPITFRWEEALNFESNSAPFIMYS
protein production: failed

MSLLQQADRLHRQLLRTGPAQAPCWEPPVDMIETESAVLIYVALPGVAAGDVAVRFDPDGISISGVRPLPALRNARIHGLEIPYGRFQRRIRLPLHALEPEAPTLADGCLTLTLKKLREAPLEHHHHHH
protein production: failed

YLASDGKTIIYVGRNNLQNEELTFKMARKEELWFHAKDIPGSHVVISGNLDPSDAVKTDAAELAAYFSQGRLSNLVQVDMIEVKKLNK
protein production: failed

MGGKYSRGEERRPLGFPGFSALCCCQKTNREETPLGFCDIKARRSNLSFGREDPAYLDMAYFPDNDLHMAACAGDLPFVRLYFTLGKYEVNHRDRENRNAMHFACFYGHLELVIYLWRRGCEINVCDNHNITPLMKAVQSWEDKIVCFLLEHHANLHIKDSMGNTALHYAVYSGNLATAARLLQYGADIEERTKDNLTPLLLALRENRLKMAQFLVRMEASVHAVDSQRRNSLMYAVRCDSPVMVNLILQQGVDINLKDLFGWTALRYAIEGDRDVRTMLLELRKRNRAFQSSENSSIRLINKADAEVTSPTANEKVIEMQDPFTTNEASVEKTQTRRPAESELEVFSLEEEISYKETINNLQQNPGQRSAKTDAATENRSP
protein production: failed

FMPTEKDVKTLQLTMKEYEAKDDWQLYLWKENEDFVGIMGIVKKENQVLEIQHLSVNPSHRHVGIGTKMVQELKSKFLEFTICGNEQTASFCEKC
protein production: failed

QLQDGKGEKVMVEYSSPNTNKPLHLGHLRNNFLGYSISQILKANGFDVIKANLVNDRGIHICKSMIAYQKSGLGETPVSTGMKGDHLVGKYYVAFDKQLKKEVEALVAAGVEEDKAKKEAPILKEAQAMLLKWEQGDKEVYDLWKTMNGWVYDGFNASYKKIGVTFDHFYYESNTYLLGKDIVEEGLAKGVFNKRADGSVWIDLTAEGLDEKLVLRSDGTSVYITQDLGTAELKYKDFGCKRSVYVVGNEQDYHFIVLIHILKKLGKPYANGVYHMSYGMVDLPSGKMKSREGTVVDADDLVDEMIATAKERTLEQGKTDGFSEEQATHLYETLGLGALKYFLLKVDPKKRMMFNPEESIDFQ
protein production: failed

VNNTKVTNSEESLSVVDDFVKSVWPTAKQAASLIGLDPKLLVAQAALETGWGRFVTRDADGSSSNNLFNIKTGSHSEVESIQVKTTEYIADTPIKINASFRKYPSIEHSFHDYVSLIKGSERYQMALANAENPEIFVSELNKAGYATDPNYSNKILSIYHGDE
protein production: failed

MWEIYDAMINGIPEDFLVDELVCGTTHSVIRSGNGVGLGPNRPFETRMPMLTQNLLGLPLRVAAGCVKSWNYVEASIGLAAINAYYNNPQVAREHGVIFSDAKRVEDRMNDPFIMSQNEVKGKKVGVVGHFPHLESLLEPICDLSILEWSPEEGDYPLPASEFILPECDYVYITCASVVDKTLPRLLELSRNARRITLVGPGTPLAPVLFEHGLQELSGFMVKDNARAFRIVAGAEKVKIYSAGQKVTIKK
protein production: not failed

MNSMKLYIFACLCSLILWGVSCNEESAGIPTGSLFLGIEEDATLLTKAESAVTNESLRVDIIAAEGDTIKSYSDYIDEVKGKKIVLPVGTYTISVKSNQSEEAGWEKPFYSGSKEITIQSGEITSVQIVCKISNTKVAVEYADNLADYFSHYETTVSNTSGSLLYTRDETRAGFFKAEKLTADLKLVNQDGNEFAMQRVFPDIKERYFYKIKYSLDDGGGDNEEAGADFGGIIVDEKADTIYYGIFIKQEDLFGKSVPKLALDGFTENKIVYKKTENPSVPEHSLTIEAPNGIKQLKVETTSFQFADVPSFDLCNLTDAARTRLQQLDFPMQEVKDKQELTFVLTDFAKALEPASVTQMATHTFTFSVLDNLHQETTVQFIYEIRPNVNVTTEEPVVWAKFVTLRGNSIDRDNIGFMLKKKADADFQRYDATIYNEQTGDFSLLLIENIMPGTEYEYYAVSGTDAQGNVKTFTTSPIVNLKNNTFDEWFKNGKTWFPNVDVSKWWDSGNTGANTAGENNPTSPEESVVVKGKAAKLQSTWIGFIGIGAFASASMFTGNFVDIDGTNGILSFGQPFTAKPTKLTGYYKYTPVNIDYMEQWDSKVDPDLKSGDSDQCIIYIALCTKNYEIRTNPKSRQLFDPNDASVIAYGELVAKEAVSGEEANGYKKFSIDIKYRKTDVTPSYIVVVAAASRYGDYFTGGKGSTLYIDEFNLEYDYNAASFTNE
protein production: failed

MEAFFRHAERVAHPSPRLRLLLALGHRMRGELDRGLAVLEGFPEEDPALLAEALLAQGTLLGLKGAHGEAEDVFSQGVALGETPLRARFLTSRGAARIRLGRYREAAEDLEEALFLSRKERLKEVEALALHNLAIARHHLGELAEAVRLYREVLPLKTAPLSRAYTLLSLGEALSYLGRFLEAKRTLFRAREEAWASGDYRAMGYTLLNLADLYREAGLPEAEGLYREAEAHLEKAHDPYALGLVHLGLARLGAKGSLERARALFQEGGSPGELAEWHLVAGRLCGRPEHFEEALRLAEKAGAGRLLLLARLELFLKAPSPGEAKALAREVLKAGFQDFWLWERAFPLPLLAFEAGEEGLLEALLAGVGWLRARSLKALEARTEEGPLPLPSRKELLLLLLLWRRKALEAEALARLLFPGSKNPKKRLQVAVHHLREALDPDLVRLEGEAYRAYLPPGVWWDARVKEGLLRWARRLSLPQAQARVEEALPGRFSPQAYLTDP
protein production: failed

MKTKPQAPHVDFYEKSELLHFLDCASKHENPQAFMFFRLLAFTGLRRGEALALQWSDINFETNELTVNKTQAVGKRWRTIIQTPKTNTSYRTIVLDPDTAQWLHKWKMTQARQCFELGFNANDPSQLVFTNQQNKLMSPSTVNYFNWSICKKYGLRHIKIHAFRHTFCTLAFEAHAGINEVSKTLGHADLKITEQIYLHVTKKQKNETASKLARYMSELLEHHHHHH
protein production: not failed
